The values below come from paper PMC2874008, “Agrin Binds BMP2, BMP4 and TGFβ1” (PLoS ONE, 2010).

Broadly, the Kd is the constant that tells how readily two partners part at equilibrium. As usually defined, the koff is a measure of how fast the partners let go of each other. Broadly, the kon is a measure of how fast the partners come together. Read a low kon as slower complex formation. Usually IC50 stands for the concentration needed to halve the response being measured. The low end stands for greater potency, the high end for weaker potency.

To fix the notation:
B1: Mature human BMP2 (ligand, UniProt P12643 283-396, looked up)
chain: QAKHKQRKRLKSSCKRHPLYVDFSDVGWNDWIVAPPGYHAFYCHGECPFPLADHLNSTNHAIVQTLVNSVNSKIPKACCVPTELSAISMLYLDENEKVVLKNYQDMVVEGCGCR
notes: bone morphogenetic protein 2, human, mature growth factor; source: bought: R&D Systems
B2: N-terminal part of rat agrin (Agrin-Nterm) (domain or fragment)
chain: RSDVCRGMLCGFGAVCEPSVEDPGRASCVCKKNACPATVAPVCGSDASTYSNECELQRAQCNQQRRIRLLRQGPCGSRDPCANVTCSFGSTCVPSADGQTASCLCPTTCFGAPDGTVCGSDGVDYPSECQLLSHACASQEHIFKKFNGPCDPCQGSMSDLNHICRVNPRTRHPEMLLRPENCPAQHTPICGDDGVTYENDCVMSRIGATRGLLLQKVRSGQCQTRDQCPETCQFNSVCLSRRGRPHCSCDRVTCDGSYRPVCAQDGHTYNNDCWRQQAECRQQRAIPPKHQGPCDQTPSPCHGVQCAFGAVCTVKNGKAECECQRVCSGIYDPVCGSDGVTYGSVCELESMACTLGREIQVARRGPCDPCGQCRFGSLCEVETGRCVCPSECVESAQPVCGSDGHTYASECELHVHACTHQISLYVASAGHCQTCGEKVCTFGAVCSAGQCVCPRCEHPPPGPVCGSDGVTYLSACELREAACQQQVQIEEAHAGPCEPAECGSGGSGSGEDDECEQELCRQRGGIWDEDSEDGPCVCDFSCQSVPRSPVCGSDGVTYGTECDLKKARCESQQELYVAAQGACRGPTLAPLLPVAFPHCAQTPYGCCQDNFTAAQGVGLAGCPSTCHCNPHGSYSGTCDPATGQCSCRPGVGGLRCDRCEPGFWNFRGIVTDGHSGCTPCSCDPRGAVRDDCEQMTGLCSCRPGVAGPKCGQCPDGQVLGHLGCEADPMTPVTCVEIHCEFGASCVEKAGFAQCICPTLTCPEANSTKVCGSDGVTYGNECQLKAIACRQRLDISTQSLGPCQ
modifications: glycosylation at multiple sites (proteoglycan smear on SDS-PAGE)
notes: not agrin residues; rat agrin, residues Asp65-Gln865, amplified from rat agrin cDNA NM_175754.1; numbers count on: the protein encoded by NM_175754.1; Calculated molecular mass of the recombinant protein 88,054 Da
B3: Mature human BMP4 (ligand, UniProt P12644 293-408, looked up)
chain: SPKHHSQRARKKNKNCRRHSLYVDFSDVGWNDWIVAPPGYQAFYCHGDCPFPLADHLNSTNHAIVQTLVNSVNSSIPKACCVPTELSAISMLYLDEYDKVVLKNYQEMVVEGCGCR
notes: bone morphogenetic protein 4, human, mature growth factor; source: bought: R&D Systems

In experiment [1] the target is B2. In words: SPR; BIAcore X; BMP2, BMP4 or TGFβ1 immobilised on CM5 chips by amine coupling, Agrin-Nterm injected at 20 µl/min; 20 mM HEPES, 150 mM NaCl, 5 mM EDTA, 0.005% Tween 20, pH 7.5; global fit, 1:1 Langmuir model. The note with it: both partners purified.
Experiment [2] has as its target Mature human TGFβ1 (human). The experiment is described as above.
Experiment [3] deals with Mature human TGFβ1 (human). In words: SPR; solution-competition: constant concentration of growth factor (40 nM BMP2, 40 nM BMP4 or 4 nM TGFβ1) preincubated 30 min at room temperature with increasing Agrin-Nterm, injected over immobilised ECD of the receptor (BMPR1A or TGF-βsRII) on CM5; 20 mM HEPES, 150 mM NaCl, 5 mM EDTA, 0.005% Tween 20, pH 7.5; 50% decrease in kobs by the method of Nieba et al. A general note: Surface plasmon resonance follows binding to a sensor surface in real time, without labels.
Sequence of Mature human TGFβ1 (human) (P01137 279-390): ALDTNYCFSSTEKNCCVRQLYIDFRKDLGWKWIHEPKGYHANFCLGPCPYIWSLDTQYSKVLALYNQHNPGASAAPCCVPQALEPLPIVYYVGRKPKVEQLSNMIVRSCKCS

Experiment [4] addresses B1. Described as above. The note with it: both partners purified.
Experiment [5] concerns the target B3. The experiment is described as above. The note with it: both partners purified.

For B1, in experiment [1], binding was put at a Kd of 262 nM, the koff worked out at 0.000286 s⁻¹ and the kon was 1090 M⁻¹ s⁻¹.

In experiment [2], B2 had a Kd of 51.5 nM, a koff of 0.000172 s⁻¹ and a kon of 3340 M⁻¹ s⁻¹. Moreover, the IC50 in experiment [3] came to 2000 nM. Moreover, the IC50 in experiment [4] worked out at 12 nM. The molecule also showed an IC50 in experiment [5] of 345 nM.

In experiment [1], B3 returned a Kd of 257 nM, a koff of 0.000412 s⁻¹ and a kon of 1610 M⁻¹ s⁻¹.
